One block for each binder: values may come before it. No end group written: not given here.
Target: FMRP (Homo sapiens, UniProt Q06787)

Kd: 0.42 µM
B1: Kv1.2 C-terminal phosphopeptide pS440 C-terminus (peptide)
chain: TSCPKIPSSPDLKKS
modifications: also: phosphoserine pS440 plus a second phosphosite, positions not given here

Kd: 33.9 µM
B2: Kv1.2 C-terminal phosphopeptide pS440 C-terminus (peptide)
chain: TSCPKIPSSPDLKKS
modifications: also: phosphoserine pS440, position in chain not given here

Source: article PMC7473840 (2018)
